Results published in patent US6517838B1, “Decorin binding protein essential peptides and methods of use” (The Texas A&M University System, priority 2000, dated 2003).

Columns and labels:
[1] = tested on: B. burgdorferi strain B31; assay: Blood cultures for spirochetes after infection of immunized mice; assay type: in vivo; conditions: immunized C3H/HeJ mice, blood 7 days post infection with 10^4 Borrelia i.d.
Protocol: (§1) Mice were immunized with recombinant DbpA (SEQ ID 1), P2 (SEQ ID 3), P4 (SEQ ID 5), P5 (SEQ ID 6), P4/P5 (SEQ ID 5/SEQ ID 6), P9 (SEQ ID 10), or the corresponding lysine modified counterparts (P2 Mod, P4 Mod, P5 Mod or P9 Mod) using the immunization schedule established by Hanson (11). Briefly, mice were immunized with 20 μg of protein or peptide in complete Freund's adjuvant (CFA) (Week 1), boosted at week 4 with the same dose in incomplete Freund's adjuvant (IFA) and infected at week 6.
(§2) Low-passage B. burgdorferi strain B31 (passage 5) was used in this study and cultured in BSK II (Barbour-Stoenner-Kelly) medium at 34° C. (22). Bacterial cultures were incubated in CO2-enriched atmosphere in a GasPak chamber (BBL, Baltimore, Md.) containing BBL GasPak Plus envelopes and a GasPak anaerobic indicator (Beckton dickinson, Cockeysville, Md.) until the cells reached log phase. Bacterial counts were determined using dark field microscopy and a Petroff-Hausser chamber.
(§3) Mice (15 mice/group) were anesthetized with Metofane (methoxyflurane; Pitman-Moore, Mundelein, Ill.) and 10 mice/ group were infected i.d. at the base of the tail with 10^4 Borrelia in 100 μl of media 6 six weeks after the first immunization. The remaining 5 mice/group were tested for a DTH response to recombinant DbpA. Following infection, mice were bled 7 and 14 days postinfection. […]

[2] = tested on: polyclonal, rabbit anti-DbpA (625); assay: ELISA recognition of DbpA-peptides by polyclonal anti-DbpA serum; assay type: binding; conditions: 2 μg peptide/well, 1:1000 anti-DbpA serum, FIG. 2
Protocol: Immulon-1 microtiter plate wells (Dynatech Labs, Chantilly, Va.) were coated with 2.0 μg of each peptide in 50 μl of PBS overnight at 4° C. The wells were washed and then blocked with 400 μl of Super Block (Pierce, Rockford, Ill.). All incubations were done at 37° C. and all dilutions were made using Super Block. After washing, 100 μl of a 1:1000 dilution of polyclonal, rabbit anti-DbpA (625) (17) was added for 1 hr. After washing, 100 μl of a 1:1000 dilution of AP-conjugated anti-rabbit IgG (Bio-Rad, Hercules, Calif.) was added for 1 hr. The wells were washed and incubated with 100 μl of a 1 mg/ml of Sigma 104 phosphatase substrate (Sigma Chemical Co., St. Louis, Mo.) dissolved in 1 M diethanolamine, 0.5 mM MgCl2, pH 9.8. Plates were washed with 0.05% PBS-Tween 20 between all steps. The absorbance at 410 nm was determined in a Microplate Reader (Molecular Devices, Menlo Park, Calif.).
Immunizations utilizing peptide formulations require that immune responses to the peptide(s) result in recognition of native-protein epitopes. […] Cross-reactivity of peptide epitopes with native protein was examined by ELISA.

[3] = tested on: B. burgdorferi strain B31; assay: Arthritis assessment, histopathology of hind tibiotarsal joints of immunized infected mice; assay type: in vivo
Protocol: as §1
Mice (15 mice/group) were anesthetized with Metofane (methoxyflurane; Pitman-Moore, Mundelein, Ill.) and 10 mice/ group were infected i.d. at the base of the tail with 10^4 Borrelia in 100 μl of media 6 six weeks after the first immunization. The remaining 5 mice/group were tested for a DTH response to recombinant DbpA. Following infection, mice were bled 7 and 14 days postinfection. Serum was collected for antibody analysis and blood cultured for the detection of live spirochetes by inoculating 5 ml of BSK II medium with 50 μl of blood from each infected mouse and cultured for 2 weeks at 34° C. as described above. Also on day 14 postinfection, mice were sacrificed and one hind tibiotarsal joint, heart, bladder, and a 3 mm skin biopsy from the ear were aseptically removed and inoculated into separate tubes containing 6 ml of BSK II medium with antibiotics (50 μg/ml rifampacin and 100 μg/ml phosphomycin (Sigma), and incubated for 2 weeks at 34° C. as described above. Evidence of arthritis was determined by histopathological examination of formalin-fixed hind tibiotarsal joint samples.
Evidence of arthritis was determined by histopathological examination of formalin-fixed hind tibiotarsal joint samples. Tissues for histological examination were embedded in paraffin and stained with hematoxylin and eosin. All sections were examined without knowledge of the vaccination status of the mouse. Arthritis was scored by one of two methods. A positive/negative assessment was used, as well as assignment of an arthritis severity score. Joints were scored according to the levels of infiltrate (neutrophils) as follows: 0, no arthritis, 1, minimal or rare (≦10% tissue involvement); 2, mild (10-20%); […]; and 4, severe (>50%).
A similar trend was also observed for joints examined for arthritis (Table I). DbpA-(SEQ ID 1), P4-(SEQ ID 5), and P5-(SEQ ID 6) immunized mice had the lowest arthritis ratings (0.2, 1.2, and 0.4, respectively) and lowest arthritis incidence (20, 60, and 20%, respectively).

decorin = target: T1, decorin (Bos taurus, UniProt P21793); assay: Western ligand blot with digoxigenin-labeled decorin; assay type: binding, bovine; conditions: SDS-PAGE reducing, probed with digoxigenin-labeled decorin
T1 construct: Decorin from bovine fetal skin was purified and stored in 4 M guanidine hydrochloride; from tissue; host or cells: decorin from bovine fetal skin; DbpA made in E. coli JM101
Protocol: Decorin from bovine fetal skin was purified and stored in 4 M guanidine hydrochloride at −80° C. and dialyzed extensively against PBS before use. Decorin was labeled with digoxigenin-3-O-methylcarbonyl-ε-aminocaproic acid-N-hydroxy-succinimide ester (digoxigenin) (Boehringer Mannheim, Indianapolis. Ind.) according to the manufacturer's instructions and stored at −20° C. To label decorin with biotin, 7.5 mg of NHS-LC-Biotin (sulfosuccinimidyl-6-(biotinamido) hexanoate) (Pierce, Rockford, Ill.) was dissolved in 100 μl of dimethyl sulfoxide and combined with 0.5 mg of decorin and 0.5 ml of 0.2 M sodium borate (pH 8.0) in a total reaction volume of 1 ml.
Proteins (purified DbpA, DbpA site-directed mutants and OspC) were subjected to SDS-PAGE (reducing conditions) and probed with rabbit anti-DbpA polyclonal sera (R625) or with digoxigenin-labeled decorin.
Further, the side chains of lysine residues were chemically modified and the binding properties of the resulting protein examined. […] Both forms of DbpA migrated as two bands, monomers at 20 and 21 kDa and dimers at 40 and 42 kDa for DbpA and chemically modified DbpA (K-mod), respectively. The decorin binding activity of the DbpA and lysine-modified DbpA was examined in a Western ligand blot assay (FIG. 6B).

recombinant DbpA = assay: Delayed-type hypersensitivity (DTH) to DbpA, footpad swelling in immunized mice; assay type: in vivo, B. burgdorferi
Protocol: as §1
Native C3H/HeJ mice immunized with DbpA (SEQ ID 1), P2 (SEQ ID 3), P4 (SEQ ID 5), P5 (SEQ ID 6), P4/P5 (SEQ ID 5/SEQ ID 6), P9 (SEQ ID 10), or the corresponding lysine modified counterparts (P2 Mod, P4 Mod, P5 Mod or P9 Mod) were challenged with 2 μg of recombinant DbpA in PBS (50 μl/footpad) 7 weeks after the initial immunization. All footpads were measured before and 24 h after challenge using a spring-loaded micrometer (Mitutoyo, Tokyo, Japan) as described (23). The mice were anesthetized as described above during footpad measurements and injections. Swelling was determined by subtracting the footpad measurements before challenge from those taken 24 h after challenge.
DTH is an in vivo method of testing T cell-dependent immune responses that are manifested by inflammation at the site of antigenic challenge. Mice immunized with DbpA (SEQ ID 1), P2 (SEQ ID 3), P4 (SEQ ID 5), P5 (SEQ ID 6), P4/P5 (SEQ ID 5/SEQ ID 6) combined, P9 (SEQ ID 10), or the corresponding lysine-modified peptides were challenged in the footpad with 2 μg of recombinant DbpA (SEQ ID 1). Footpad measurements were taken before and after challenge as described above. DbpA (SEQ ID 1)-immunized mice developed a significant footpad swelling of 53.3±3.5 (not shown) compared to mice immunized with adjuvant alone or naive mice receiving only the DbpA (SEQ ID 1) challenge. Peptide-immunized mice, with the exception of P2 (SEQ ID 3), also developed a significant DTH response to DbpA (SEQ ID 1) compared to the lysine-modified controls.

[4] = tested on: B. burgdorferi strain B31; assay: Joint cultures for spirochetes after infection of immunized mice; assay type: in vivo; conditions: immunized C3H/HeJ mice, joints 14 days post infection
Protocol: as §1, §2, §3

T1 sequence (P21793 31-360): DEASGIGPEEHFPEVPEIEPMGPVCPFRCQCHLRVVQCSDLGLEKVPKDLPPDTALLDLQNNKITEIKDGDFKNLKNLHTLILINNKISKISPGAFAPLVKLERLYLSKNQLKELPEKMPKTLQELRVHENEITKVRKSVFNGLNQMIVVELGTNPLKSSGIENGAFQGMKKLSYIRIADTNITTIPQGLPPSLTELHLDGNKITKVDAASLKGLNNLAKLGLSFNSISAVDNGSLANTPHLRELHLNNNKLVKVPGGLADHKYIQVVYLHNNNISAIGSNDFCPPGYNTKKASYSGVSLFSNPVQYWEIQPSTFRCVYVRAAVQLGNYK

B1: DbpA: recombinant decorin binding protein A of B. burgdorferi strain 297, N-terminal His-tag fusion (protein)
chain: MIKCNNKTFNNLLKLTILVNLLISCGLTGATKIKLESSAKAIVDEIDAIKKKAASMGVNFDAFKDKKTGSGVSENPFILEAKVRATTVAEKFVIAIEEEATKLKETGSSGEFSAMYDLMFEVSKPLQELGIQEMTKTVSMAAEENPPTTAQGVLEIAKKMREKLQRVHKKNQDTLKKKNTEDSTAKS
modifications: N-terminal His-tag; Borrelia Burgdorferi
In the case of B1, the positive blood cultures [1] is reported as 50-60%, the “recognition by anti-DbpA serum (ELISA, O.D. 410 nm)” value [2] is reported as “recognized” and the “arthritis incidence and severity (in words)” value ([3]; immunized infected mice) is reported as “lowest”. The “% Incidence (arthritis)” value ([3]; immunized mice, day 14 post infection, tibiotarsal joint histology) was 20%, the “Mean Arthritis Rating” value ([3]; severity score 0-4 by neutrophil infiltrate, day 14 post infection) was 0.2 and the “decorin binding in Western ligand blot” value (decorin) was “bound digoxigenin-labeled decorin”. The “DTH response to DbpA (in words)” value (recombinant DbpA; C3H/HeJ mice immunized with 20 μg, challenged with 2 μg recombinant DbpA in footpad, 24 h) was “significant inflammation”, the footpad swelling (recombinant DbpA; C3H/HeJ mice, 24 h after challenge with 2 μg recombinant DbpA, mean±SE) was 53.3±3.5 and the positive joint cultures [4] was 20%.
